Source: patent publication US20020049303A1

Biological target: recombinant memapsin 2 (M2pd), auto-activated from pro-M2pd at pH 4.0 (human) (UniProt P56817)
Assay: cell-based or functional assay

recombinant memapsin 2 (M2pd), auto-activated from pro-M2pd at pH 4.0 (human), sequence (P56817 25-419 limits assumed): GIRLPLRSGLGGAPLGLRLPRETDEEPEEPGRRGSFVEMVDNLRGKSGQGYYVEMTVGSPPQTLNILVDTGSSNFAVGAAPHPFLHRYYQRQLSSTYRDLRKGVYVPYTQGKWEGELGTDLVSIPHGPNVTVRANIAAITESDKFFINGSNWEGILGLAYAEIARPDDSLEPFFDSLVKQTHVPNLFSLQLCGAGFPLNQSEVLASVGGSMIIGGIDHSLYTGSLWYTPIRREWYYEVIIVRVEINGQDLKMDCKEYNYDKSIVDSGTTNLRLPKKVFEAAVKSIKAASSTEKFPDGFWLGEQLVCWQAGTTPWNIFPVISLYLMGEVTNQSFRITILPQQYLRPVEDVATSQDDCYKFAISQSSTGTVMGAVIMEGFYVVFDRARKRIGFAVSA

inhibition of M2pd activity (IC50): 300 µM
Substance: Pepstatin A (peptide)
